{
  "source": "patent US10189887B2",
  "about": "“Polypeptides and uses thereof for reducing CD95-mediated cell motility” (INSERM (INSTITUT NATIONAL DE LA SANTÉ ET DE LA RECHERCHE …, priority 2014, dated 2019)",
  "key": {"[1]": {"tested_on": "CD95-mediated Ca^2+ response", "experiment": "Calcium response to cl-CD95L in Jurkat cells (Fura2/FuraPE3 video imaging)", "format": "cell-based", "details": "100 ng/ml cl-CD95L", "experimental": "(§1) Cells were loaded with Fura2-AM (1 μM) at resting temperature for 30 min in Hank's Balanced Salt Solution (HBSS). After washing with HBSS, the cells were incubated for 15 min in the absence of Fura2-AM to complete de-esterification of the dye. Cells were placed in a thermostated chamber (37° C.) of an inverted epifluorescence microscope (Olympus IX70) equipped with a ×40, UApo/340-1.15 W water-immersion objective (Olympus), and fluorescence micrograph images were captured at 510 nm and at 12-bit resolution by a fast-scan camera (CoolSNAP fx Monochrome, Photometrics). To minimize UV light exposure, 4×4 binning function was used. Fura2-AM was alternately excited at 340 and 380 nm, and ratios of the resulting images (excitations at 340 and 380 nm and emission filter at 520 nm) were produced at constant intervals (5 s or 10 s according to the stimulus). […] Fluorescent images were pseudocolored using the IMD display mode in MetaFluor and assembled without further manipulation in Photoshop (Adobe). Raw data were acquired with MetaFluor and graphed in Origin (OriginLab). [Ca^2+]i was calculated using the following equation: [Ca^2+]i=Kd(R−Rmin)/(R−Rmax)×Sf2/Sf1, where Kd is the Fura2-AM dissociation constant at the two excitation wavelengths (F340/F380); Rmin is the fluorescence ratio in the presence of minimal calcium, obtained by chelating Ca^2+ with 10 mM EGTA; Rmax is the fluorescence ratio in the presence of excess calcium, obtained by treating cells with 1 μM ionomycin; Sf2 is the fluorescence of the Ca^2+-free form; and Sf1 is the fluorescence of the Ca^2+-bound form of Fura2-AM at excitation wavelengths of 380 and 340 nm, respectively. In some experiments cells were placed in a Ca^2+-free medium consisting of the HBSS described above in which CaCl2 was omitted and 100 μM EGTA was added in order to chelate residual Ca^2+ ions. This medium was added to the cells just before recording to avoid leak of the intracellular calcium stores.\nT cells were loaded with Fura-PE3-AM (1 μM) at room temperature for 30 min in Hank's Balanced Salt Solution (HBSS). After washing, the cells were incubated for 15 min in the absence of Fura-PE3-AM to complete de-esterification of the dye. Cells were placed in the temperature controlled chamber (37° C.) of an inverted epifluorescence microscope (Olympus IX70) equipped with an ×40 UApo/340-1.15 W water-immersion objective (Olympus), and fluorescence micrograph images were captured at 510 nm and 12-bit resolution by a fast-scan camera (CoolSNAP fx Monochrome, Photometrics). To minimize UV light exposure, a 4×4 binning function was used. Fura-PE3 was alternately excited at 340 and 380 nm, and the ratios of the resulting images (emission filter at 520 nm) were produced at constant intervals (10 seconds). The Fura-PE3 ratio (Fratio 340/380) images were analyzed offline with Universal Imaging software, including Metafluor and Metamorph. Fratio reflects the intracellular Ca^2+ concentration changes. Each experiment was repeated 3 times, and the average of more than 20 single-cell traces was analyzed."}, "[2]": {"tested_on": "CD95-mediated Ca^2+ response", "experiment": "Calcium response to cl-CD95L in activated PBL", "format": "cell-based, human", "details": "human PBLs pretreated 1 μM, 1 h (positive control); 100 ng/ml cl-CD95L", "experimental": "as §1\nAll cells were purchased from ATCC (Molsheim Cedex, France). T leukemic cell lines CEM, H9 and Jurkat were cultured in RPMI supplemented with 8% heat-inactivated FCS (v/v) and 2 mM L-glutamine at 37° C. in a 5% CO2 incubator. CEM-IRC cell expressing a low amount of plasma membrane CD95 was described in (Beneteau et al., 2007; Beneteau et al., 2008). […]\nT cells were loaded with Fura-PE3-AM (1 μM) at room temperature for 30 min in Hank's Balanced Salt Solution (HBSS). […] Cells were placed in the temperature controlled chamber (37° C.) of an inverted epifluorescence microscope (Olympus IX70) equipped with an ×40 UApo/340-1.15 W water-immersion objective (Olympus), and fluorescence micrograph images were captured at 510 nm and 12-bit resolution by a fast-scan camera (CoolSNAP fx Monochrome, Photometrics). […]"}, "[3]": {"tested_on": "Th17 cell accumulation", "experiment": "In vivo administration of cl-CD95L: cell accumulation in peritoneal cavity and spleen", "design": "species or system C57BL/6 mice", "details": "24 hours", "experimental": "Female C57BL/6 mice (Harlan UK) aged between 8-10 weeks were placed in groups of 6 and administered IP. Twenty-four hours following injection, mice were sacrificed and periteonial cavities were washed with 5 ml of PBS/2% FCS, blood smears were prepared, and spleens were collected. Blood smears and cytospins of periteonal cells (PECs) were stained with Giemsa and differential counts performed. Single cell suspensions of spleens and PECs were prepared, cell counts performed, CD4+CD62− T-cells were isolated with Miltenyi microbeads and number of cells determined by trypan blue exclusion. For experiments where animals received TAT-mCID or control peptides, 800 μg (40 mg/kg) was injected IP 2 hrs prior to administration of cl-CD95L. All mouse experiments were performed under ethical approval from the University of Nottingham local animal ethics committee and adhering to UK Home Office guidelines under the Project License 40/3412.\nSingle cell suspensions of spleens and PECs were prepared as described above. RNA was extracted from CD4 T-cells using phenol/chloroform. cDNA was prepared using the Promega GO-Script Reverse Transcription Kit and used in Real-Time PCR. Briefly, cDNA samples were subject to Taqman assay performed on a Roche Lightcycler. Results are reported as expression levels were calculated using the Δct method relative to HPRT."}, "[4]": {"tested_on": "Th17 cells", "experiment": "Endothelial transmigration of CD4 T-cell subsets (Th17, Th1, Treg), Boyden chamber", "format": "cell-based, human", "experimental": "Animal experiments were subject to ethical review by the University of Nottingham were appropriate and conducted using PPL 40/3412 in accordance with the UK Home Office guidance and under ASPA (1986). For the generation of murine T-cell subsets, spleens were removed from C57Bl/6 mice and single cell suspensions prepared. CD4^+CD62L^+ naïve cells were isolated using Miltenyi Biotec microbeads. Naïve human CD4^+ T-cells were prepared using the Miltenyi Biotec naïve CD4^+ T-cell isolation kit II, which are sorted produced a 99% pure population of CD4^+CD45RA^+ cells. Purified cells were cultured in complete IMDM media all with α-CD3 (1 μg/ml), α-CD28 (2 μg/ml), and as follows; Th1 cells IL-12 (10 ng/ml) with α-IL-4 (10 μg/ml), Th2 cells IL-4 (10 ng/ml) and α-IFN-γ (10 μg/ml), Th17 cells Il-6 (10 ng/ml), TGF-β1 (2 ng/ml), α-IFN-γ (10 μg/ml) with α-IL-4 (10 μg/ml), and Tregs IL-2 (10 ng/ml) TGF-β1 (5 ng/ml), α-IFN-γ (10 μg/ml) and α-IL-4 (10 μg/ml). Cells were converted to T-cell subsets over five days as outlined above. All cytokines were supplied by PeproTech (London, UK). Mouse CD3 (clone 2C11); human CD3 (UCHT1); mouse CD28 (37.51); human CD28 (CD28.2); mouse IL-4 (11B11); human IL-4 (MP4-25D2); mouse IFN-γ (XMG1.2); human IFN-γ B27 came from BD Pharmigen.\nAfter hydration of the Boyden chamber membranes containing 3 μm pore size membranes (Millipore, Molsheim, France), activated T-lymphocytes (10^6) were added to the top chamber on a confluent monolayer of HUVEC in a low serum (1%)-containing medium. […] In experiments using human sera, 500 μl of serum from either healthy donors or SLE patients was added in the lower reservoir. Cells were cultured for 24 h at 37° C. in a 5% CO2 humidified incubator. Transmigrated cells were counted in the lower reservoir by flow cytometry using a standard of 2.5×10^4 fluorescent beads (Flow-count, Beckman Coulter).\nBlocking antibodies were used against E-selectin and ICAM-1 in the CHEMICON® endothelial cell adhesion assay (Millipore). Briefly, after activation of the endothelial cell layer with TNF-α, anti-mouse Ig controls, anti-E-selectin or anti-ICAM-1 were added at final concentrations of 10 μg/ml. Thereafter calcein-AM-stained T-cell subsets were incubated for 24 hours and unbound cells are washed. Cells attached to the endothelium were assessed using fluorescence plate reader."}},
  "data": [
    {"molecule": "C1CCC[C@H]2CCCN3CC[C@@H](CCCCCC[C@@H]4CCCN5CC[C@@H](CC1)O[C@@H]45)O[C@@H]23", "note": "[Xestospongin C, reference compound]", "values": [
      {"measurement": "calcium response to cl-CD95L", "setting": "[1]; Jurkat cells pretreated 2 μM, 20 minutes", "result": "completely blocked the initial component of the calcium response"},
      {"measurement": "CD95-mediated Ca^2+ response", "setting": "[2]", "result": "abrogated the CD95-mediated Ca^2+ response"}
    ]},
    {"molecule": "Ryanodine", "values": [
      {"measurement": "calcium response to cl-CD95L", "setting": "[1]; Jurkat cells pretreated 20 minutes with 10 μM Ryanodine, alone or with Xestospongin C", "result": "did not reduce the initial peak but blocked the plateau phase"}
    ]},
    {"molecule": "cl-CD95L: recombinant homotrimeric metalloprotease-cleaved CD95L from supernatant of transfected HEK 293 cells (protein) QIGHPSPPPEKKELRKVAHLTGKSNSRSMPLEWEDTYGIVLLSGVKYKKGGLVINETGLYFVYSKVYFRGQSCNNLPLSHKVYMRNSKYPQDLVMMEGKMMSYCTTGQMWARSSYLGAVFNLTSADHLYVNVSELSLVNFEESQTFFGLYKL", "values": [
      {"measurement": "total cell counts from the PEC and spleen", "setting": "[3]; single IP dose cl-CD95L (200 ng) versus vehicle", "result": "significant increase in the number of lymphocytes"},
      {"measurement": "Th17 lineage markers (IL-17, IL-23R, CCR6) in recruited activated CD4+ T cells, Q-PCR", "setting": "[3]; single IP dose cl-CD95L (200 ng)", "result": "induced the recruitment of Th17 cells"},
      {"measurement": "transmigration of CD4 T-cell subsets", "setting": "[4]; Th1 and Th17 versus Th0 and Th2, cl-CD95L 200 ng/ml", "result": "more efficient to promote the transmigration of Th1 and Th17 lymphocytes"},
      {"measurement": "endothelial transmigration of Th17 T cells", "setting": "[4]; human Th17 cells, presence or absence of cl-CD95L", "result": "enhanced endothelial transmigration of Th17 T cells"},
      {"measurement": "endothelial transmigration of Treg cells", "setting": "[4]; human regulatory T-cells, presence or absence of cl-CD95L", "result": "failed to induce significant Treg transmigration"}
    ]},
    {"molecule": "CD95-Fc: decoy receptor for CD95L (protein, left off: a dimerising Fc or GST, decoy receptor for CD95L) QVTDINSKGLELRKTVTTVETQNLEGLHHDGQFCHKPCPPGERKARDCTVNGDEPDCVPCQEGKEYTDKAHFSSKCRRCRLCDEGHGLEVEINCTRTQNTKCRCKPNFFCNSTVCEHCDPCTKCEHGIIKECTLTSNTKCKEEGSRSN", "values": [
      {"measurement": "Th17 cell migration induced by SLE sera", "setting": "[4]; pre-incubation of SLE sera with decoy receptor, increasing concentrations", "result": "prevented Th17 cell migration in a dose-dependent manner"}
    ]}
  ]
}
